Common to all, as to assay: AUC
The target of test [1] is unmyristoylated HIV-1 matrix-capsid, myr(−)MACA (HIV-1 (pNL4-3 isolate)).
For test [2] the target is unchanged. This is another data set of the same source.
The target is the same in test [3]. The source holds these as a separate data set.
For test [4], the target named is myr(+)MACA-W184A/M185A (HIV-1 (pNL4-3 isolate)).
Test [5] shares this target. This is another data set of the same source.
Test [6] has as its target myristoylated HIV-1 matrix protein, myr(+)MA (HIV-1).
The target is the same in test [7]. This is another data set of the same source.
For test [8] the target is unchanged. This is another data set of the same source.
In test [9] the target is myristoylated HIV-1 matrix-capsid, myr(+)MACA (HIV-1 (pNL4-3 isolate)).
Test [10] shares this target. This is another data set of the same source.
Test [11] has the same target. The source holds these as a separate data set.
Test [12] shares this target. The source holds these as a separate data set.

The source of these data is paper PMC3032006.

Read-outs that look alike come from different tables or passages of the source.

The term stoichiometry N denotes a count of units in the complex or per binding partner. As for “unmyristoylated HIV-1 matrix-capsid, myr(−)MACA (domain or fragment)”, the Ka in test [1] was determined as 110000 M⁻¹; in test [2], 33000 M⁻¹. In addition, the stoichiometry N in test [1], in [2] and in test [3] was 2 throughout.

In the case of “myr(+)MACA-W184A/M185A (domain or fragment)”, the stoichiometry N in test [4] and in [5] was 2 each time.

For “myristoylated HIV-1 matrix protein, myr(+)MA (natural protein)”, the stoichiometry N in test [6], in [7] and in test [8] was 3 in each case. In test [8], the fraction in the 2.4S (trimer) peak of c(s) was 30%.

Take “myristoylated HIV-1 matrix-capsid, myr(+)MACA (domain or fragment)”: the stoichiometry N came to 3 in [9], 3 in test [10], 3 in test [11] and 2 in test [12]. The Ka in [12] stood at 33000 M⁻¹. This substance also registered a fraction in the 4.3S (major) peak of c(s) in [12] of 70%.
